94 variants from the supplement of paper PMC10567573 can be followed below.

The chains are these.
B1: C2orf65 (parent)
chain: QLDWDELETNQQHFHALCHSLLVS
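Also: lentivirally expressed fusions sorted by FACS into six bins by GFP to DsRed ratio, PSI derived from sequencing read proportions per bin multiplied by bin number.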

The variants in the data set derive from B1. The experiment in a line: protein stability index of a GFP-peptide fusion (GPS, HEK-293T) (PSI 1-6); higher = more stable. The settings on record: c terminus: a fixed tail appended.
On to QLDWDELETNQQEFHALCHSLLVS [H13E], for which the protein stability index amounted to 2.89. Turning to QLDWDELETNQQNFHALCHSLLVS [H13N], the protein stability index came to 2.35. In the case of QLDWDELETNQQFFHALCHSLLVS [H13F] it was 2.15. QLDWDELETNQQAFHALCHSLLVS [H13A]: the protein stability index amounted to 2.16. Then QLDWDELETNQQRFHALCHSLLVS [H13R], with 1.88; and QLDWDELETNQQQFHALCHSLLVS [H13Q], with 2.36; and QLDWDELETNQQIFHALCHSLLVS [H13I], with 1.71. Then QLDWDELETNQQPFHALCHSLLVS [H13P], with 2.63. Take QLDWDELETNQQLFHALCHSLLVS [H13L]: the protein stability index was 1.99. In the case of QLDWDELETNQQMFHALCHSLLVS [H13M] it was 1.65; in that of QLDWDELETNQQDFHALCHSLLVS [H13D], 2.37. Then QLDWDELETNQQKFHALCHSLLVS [H13K], with 2.02; and QLDWDELETNQQCFHALCHSLLVS [H13C], with 2.31. In the case of QLDWDELETNQQGFHALCHSLLVS [H13G] it was 2.39; in that of QLDWDELYTNQQHFHALCHSLLVS [E8Y], 1.87. In the case of QLDWDELWTNQQHFHALCHSLLVS [E8W], the protein stability index came to 2.9. In the case of QLDWDELTTNQQHFHALCHSLLVS [E8T] it was 1.61. In the case of QLDWDELVTNQQHFHALCHSLLVS [E8V] it was 1.21; in that of QLDWDELETCQQHFHALCHSLLVS [N10C], 1.76; in that of QLDWDELETMQQHFHALCHSLLVS [N10M], 2.18.

As to QLDWDELETEQQHFHALCHSLLVS [N10E], the protein stability index amounted to 2.33. Then QLDWDELETDQQHFHALCHSLLVS [N10D], with 2.87; and QLDWDELETSQQHFHALCHSLLVS [N10S], with 2.2; and QLDWDELETIQQHFHALCHSLLVS [N10I], with 2.19.

With QLDWDELETGQQHFHALCHSLLVS [N10G], the protein stability index was found to be 2.82.

With QLDWDELETLQQHFHALCHSLLVS [N10L], the protein stability index came to 1. In the case of QLDWDELETYQQHFHALCHSLLVS [N10Y] it was 1.99; in that of QLDWDELETRQQHFHALCHSLLVS [N10R], 2.81.

As to QLDWDELETVQQHFHALCHSLLVS [N10V], the protein stability index was 1.62. In the case of QLDWDELETPQQHFHALCHSLLVS [N10P] it was 2.31; in that of QLDWDELETFQQHFHALCHSLLVS [N10F], 1.69; in that of QLDWDELETHQQHFHALCHSLLVS [N10H], 2.17.

For the variant QLDWDELETAQQHFHALCHSLLVS [N10A], the protein stability index was found to be 2.04. In the case of QLDWDELETWQQHFHALCHSLLVS [N10W] it was 2.25; in that of QLDWDELETKQQHFHALCHSLLVS [N10K], 2; in that of QLDWDELETTQQHFHALCHSLLVS [N10T], 1.55. Then QLDWDELETQQQHFHALCHSLLVS [N10Q], with 2.07. As for QLDWDELETNQCHFHALCHSLLVS [Q12C], the protein stability index is 2.06. QLDWDELETNQTHFHALCHSLLVS [Q12T]: the protein stability index worked out at 2.13.

Consider QLDWDELETNQFHFHALCHSLLVS [Q12F], for which the protein stability index amounted to 1.45. Then QLDWDELETNQGHFHALCHSLLVS [Q12G], with 2.69; and QLDWDELETNQKHFHALCHSLLVS [Q12K], with 1.84.

For QLDWDELETNQPHFHALCHSLLVS [Q12P], the protein stability index is 2.73. Then QLDWDELETNQLHFHALCHSLLVS [Q12L], with 1.67; and QLDWDELETNQAHFHALCHSLLVS [Q12A], with 1.84. Then QLDWDELETNQYHFHALCHSLLVS [Q12Y], with 1.48; and QLDWDELETNQDHFHALCHSLLVS [Q12D], with 2.37. For the variant QLDWDELETNQIHFHALCHSLLVS [Q12I], the protein stability index worked out at 2.55.

On to QLDWDELETNQRHFHALCHSLLVS [Q12R], for which the protein stability index was 2.37. Then QLDWDELETNQSHFHALCHSLLVS [Q12S], with 2.62. In the case of QLDWDELETNQEHFHALCHSLLVS [Q12E] it was 2.43; in that of QLDWDELETNQVHFHALCHSLLVS [Q12V], 2.17; in that of QLDWDELETNQHHFHALCHSLLVS [Q12H], 1.92. With QLDWDELETNQWHFHALCHSLLVS [Q12W], the protein stability index was 2.6.

For QLDWDELETNQMHFHALCHSLLVS [Q12M], the protein stability index stood at 1.83. For the variant QLDWDELETNQNHFHALCHSLLVS [Q12N], the protein stability index stood at 2.1. In the case of QLDWDELEWNQQHFHALCHSLLVS [T9W] it was 1.81; in that of QLDWDELEFNQQHFHALCHSLLVS [T9F], 1.8. Then QLDWDELEGNQQHFHALCHSLLVS [T9G], with 2.07.

Take QLDWDELENNQQHFHALCHSLLVS [T9N]: the protein stability index came to 1.56. Consider QLDWDELEHNQQHFHALCHSLLVS [T9H], for which the protein stability index stood at 2.54. In the case of QLDWDELERNQQHFHALCHSLLVS [T9R] it was 1.61. Consider QLDWDELESNQQHFHALCHSLLVS [T9S], for which the protein stability index amounted to 2.37. In the case of QLDWDELEINQQHFHALCHSLLVS [T9I] it was 1.69; in that of QLDWDELEANQQHFHALCHSLLVS [T9A], 2.71; in that of QLDWDELEVNQQHFHALCHSLLVS [T9V], 3.67. Then QLDWDELELNQQHFHALCHSLLVS [T9L], with 1.52.

As for QLDWDELEMNQQHFHALCHSLLVS [T9M], the protein stability index was 2.35. As for QLDWDELEPNQQHFHALCHSLLVS [T9P], the protein stability index was 1.91. Then QLDWDELECNQQHFHALCHSLLVS [T9C], with 2.21.

Turning to QLDWDELEKNQQHFHALCHSLLVS [T9K], the protein stability index stood at 1.97. For QLDWDELEQNQQHFHALCHSLLVS [T9Q], the protein stability index stood at 2.75. Then QLDWDELEDNQQHFHALCHSLLVS [T9D], with 2.39; and QLDWDELEYNQQHFHALCHSLLVS [T9Y], with 1.84. Consider QLDWDELEENQQHFHALCHSLLVS [T9E], for which the protein stability index was 2.88. Regarding QLDWDELETNRQHFHALCHSLLVS [Q11R], the protein stability index worked out at 2.29.

With QLDWDELETNCQHFHALCHSLLVS [Q11C], the protein stability index worked out at 1.9. QLDWDELETNNQHFHALCHSLLVS [Q11N]: the protein stability index was determined as 2.34. Then QLDWDELETNMQHFHALCHSLLVS [Q11M], with 2.39. In the case of QLDWDELETNTQHFHALCHSLLVS [Q11T] it was 2.04; in that of QLDWDELETNGQHFHALCHSLLVS [Q11G], 2.62.

For the variant QLDWDELETNEQHFHALCHSLLVS [Q11E], the protein stability index is 2.39. Then QLDWDELETNDQHFHALCHSLLVS [Q11D], with 2.56; and QLDWDELETNLQHFHALCHSLLVS [Q11L], with 2.23. In the case of QLDWDELETNIQHFHALCHSLLVS [Q11I] it was 1.39. In the case of QLDWDELETNFQHFHALCHSLLVS [Q11F] it was 2.13.

In the case of QLDWDELETNPQHFHALCHSLLVS [Q11P], the protein stability index is 2.02. Then QLDWDELETNYQHFHALCHSLLVS [Q11Y], with 1.39; and QLDWDELETNSQHFHALCHSLLVS [Q11S], with 1.79; and QLDWDELETNVQHFHALCHSLLVS [Q11V], with 1.45. Regarding QLDWDELETNWQHFHALCHSLLVS [Q11W], the protein stability index was found to be 2.01. For QLDWDELETNKQHFHALCHSLLVS [Q11K], the protein stability index stood at 1.97.

With QLDWDELETNAQHFHALCHSLLVS [Q11A], the protein stability index was found to be 1.66. Then QLDWDELETNHQHFHALCHSLLVS [Q11H], with 2.07.
